Data published in the DeepSol protein solubility set.

Experiment: soluble on expression in E. coli; label from the status in PepcDB or PDB records

| Sequence | soluble on expression in E. coli |
| --- | --- |
| MGSDKIHHHHHHMKVLVVDDDKLARKGLISIMDWKKYGFEVVGDVQNGRKALEFLKDNEVDIVFTDIDMPEIDGIELMKMCKKEYPEVKFVVFSMYEDFRYAQSALRLGALDYISKISFEGDECDRILELVERKYKENHSQKETRNEDSELIKRLEKAWMNTRWIFNDSEFNRLYELTRGVELRTAERVFIKSFHSLQKLTGEELEFPSLSSVDSMLEWVKQWKENLYQTCLQTDKTKDIYMFARVILYTDEHIEENLKSEEAAAQIGMSRSYFSTRFKEMTGDTFHNYVISRKMYAAAQKMAKGTENITQIASNLGYDNFYYFTKVFSKEYGCMPTEYVGRIKKCSI | not soluble |
| MGSDKIHHHHHHMDFIEVYPNALPDDLCDRLILAFDQHTGVVDGQTGNGVDPEKKISRDLTLDNFDDMQPLKNELLSYTLKGVVDYFTQYSMALMGAVAVSVSDAEGKPTTLTPSNFAQLGLPKVDGLVKYLYRSGSINIQKYQRNKGGYPHWHSEQFPQSGHNEALHRVVFYMFYLNDVEEGGETEFYYQRRKISPKKGTMVIAPAGFTHSHRGNMPISNDKYIATSWVMFNRAEQLYTVYA | not soluble |
| MGSDKIHHHHHHLIPKIIHYCWFGNSELPDIVKDCISSWKKYCPEYEIKRWDESNYDVSKNAYTRAAYKNKKWAFLTDYVRLDVLYNEGGVYMDTDVKLIRSLDPLIDKGPFMSFEKRGRVNTGVGFACEAGNPIVKENKDYYENNLFVDENGNFEPEICVKITTKILIKHGLNYTENVVQKVDGLIVYSSDYFSPKKLGTEKITLTSNTYGIHLFASSWYKGSKIYKKMKYHLIPLKEFIKYKILSKKLYE | not soluble |
| MSLTGMLKRKVIVVSGVGPGLGTTLAHRCARDGADLVLAARSAERLDDVAKQIIDTGRRAVAVRTDITDDDDVSNLVQATLAAYGKADVLINNAFRVPSMKPLAGTTFEHIRDAIELSALGTLRLIQAFTPALAQSHGAIVNVNSMVIRHSQPKYGTYKMAKSVLLAMSHSLATELGEQGIRVNSVAPGYIWGDTLKSYFDHQAGKYGTTVDQIYQATAANSDLKRLPTEDEVASAILFLASDLASGITGQTLDVNCGEYHTEGHHHHHH | soluble |
| MGDSILSQAEIDALLNGDSDTKDEPTPGIASDSDIRPYDPNTQRRVVRERLQALEIINERFARQFRMGLFNLLRRSPDITVGAIRIQPYHEFARNLPVPTNLNLIHLKPLRGTGLVVFSPSLVFIAVDNLFGGDGRFPTKVEGREFTHTEQRVINRMLKLALEGYSDAWKAINPLEVEYVRSEMQVKFTNITTSPNDIVVNTPFHVEIGNLTGEFNICLPFSMIEPLRELLVNPPLENSRHEDQNWRDNLVRQVQHSELELVANFADIPLRLSQILKLKPGDVLPIEKPDRIIAHVDGVPVLTSQYGTVNGQYALRVEHLINPILNSLNEEQPK | not soluble |
| MPKKRENRGRRKGDKGHVGYISCDQCGARVPEDKAVCVTKMYSPVDASLASELEKKGAIIARYPVTKCYCVNCAVFLGIIKIRAENERKQKARLRLEHHHHHH | not soluble |
| MELATTQSVLMQIQPTIQRFARMLASVLQLEVEIVDENLCRVAGTGAYGKFLGRQLSGNSRLLRHVLETKTEKVVTQSRFDPLCEGCDSKENCREKAFLGTPVILQDRCVGVISLIAVTHEQQEHISDNLREFSDYVRHISTIFVSKLLEDQGPGDNISKIFATMIDNMDQGVLVVDDENRVQFVNQTALKTLGVVQNNIIGKPIRFRPLTFESNFTHGHMQHIVSWDDKSELIIGQLHNIQGRQLFLMAFHQSHTSFSVANAPDEPHIEQLVGECRVMRQLKRLISRIAPSPSSVMVVGESGTGKEVVARAIHKLSGRRNKPFIAINCAAIPEQLLESELFGYVKGAFTGASANGKTGLIQAANTGTLFLDEIGDMPLMLQAKLLRAIEAREILPIGASSPIQVDIRIISATNQNLAQFIAEGKFREDLFYRLNVIPITLPPLRERQEDIELLVHYFLHLHTRRLGSVYPGIAPDVVEILRKHRWPGNLRELSNLMEYLVNVVPSGEVIDSTLLPPNLLNNGTTEQSDVTEVSEAHLSLDDAGGTALEEMEKQMIREALSRHNSKKQVADELGIGIATLYRKIKKYELLNT | not soluble |
| MGSDKIHHHHHHAAEKTVVNISKVDGMPWFNRMGEGVVQAGKEFNLNASQVGPSSTDAPQQVKIIEDLIARKVDAITIVPNDANVLEPVFKKARDAGIVVLTNESPGQPSANWDVEIIDNEKFAAEYVEHMAKRMGGKGGYVIYVGSLTVPQHNLWADLLVKYQKEHYPDMHEVTRRMPVAESVDDSRRTTLDLMKTYPDLKAVVSFGSNGPIGAGRAVKEKRAKNKVAVYGMMIPSQAASLIKSGDITEGITYDPATAGYALAAVASTLLNGKTIEPGFELKELGKAEVDSDKHIIRFHKVLLVNKDNIDSLY | not soluble |
| MAPQKCFLQIKGMTCASCVSNIERNLQKEAGVLSVLVALMAGKAEIKYDPEVIQPLEIAQFIQDLGFEAAVMEDYAGSDGNIELTITGMTCASCVHNIESKLTRTNGITYASVALATSKALVKFDPEIIGPRDIIKIIEEIGFHASLAQ | soluble |
| RAHQRWREHALAVIKDKMYNHIGSILVFLPGVADIRFLLDSLMAQKVEGVKICPLFGELSLKEQQQAIAPCLSGHRKIVLATNIAETSLTIDGIDLVIDCGLEKVAVFDSASLMNKLMQKQISKASAVQRAGRAGRLMHGQCIRLYGKDDFERR | not soluble |
| MSLAPSPSSSTAPAALQQLGWQARLRWVHGICQGLPKVAQQLDEFLANQTGVVSTAREMQEWREAWVGFQQHKDAWVQACSQALQQAARKPPSQAGESSASGSAPLNFELLSDDVVENKILASRMALAMGETLQPGFEAMRLRMQALEGHELPSRDMFRAETICLHLVEQWLSCGMERKHLLRAVEPLQNALAPLMESEYGILHKLLDAKGVSKAQDAPLRVKRTEGGPPTGAMPLGGASGFGHAAEPGWSSSAMQQFMSAGMAAGIGTEPGIALPPGASAGLGMLARARHRALDAMNQLRQVLSQPAVGIPGLMPGAPLVPMPPASAALAQALQEQQQLMVAELRAQYPAATGSAMAMPAMDYSPAAIDQLVNQVRERSADWKQKAQTTGEKATIEVVALMFQSILSEDRLPPSIRVWFARLQVPVLRVALAEPQFFSDLNHPARKLIDRMGSCVMGFDASSINGNALETEIRRVVQVIEQYPETGQKVFALVLREFEAFLTKHFAQNRSTAKITSVAQQVEQKETLAIQYTIELRNMLTDMPVREEVRDFLFKSWADVLAMATVRYGAKDARAMRFKQAASELVWSASAKPSRQERARVIQGLPTLLQTLREGLELVSVTGDAQSTAIKVLTDTLAQAFMSKTAAIPAERIEAMAKRLSELEKYISEDGKLDDMPLSSESIELMLGVDAGDLNVIPNTDSPVEPAMLEWARSLESGRWFTLDHNGSRVQVQYVWHSRRRHLHLFASLDGHCYLLQAQRMATYLQAGLLAVHDAEALTVRATRDALQKIQANPEREGHHHHHH | soluble |
| MATSLDRDKEAVLRALRPYLEGTGTRLFLFGSFARGEGRQASDLDLALLSPVPLKDLMPLLREALEEAPVVRRVDLVDLAEAEPAFRERVLREGVLWAEF | soluble |
| MKGVVEGQCGQQNALVGLANTFGTSNQRVAPSNAAASLLPSSSMGEQMANEFLRQQARTMAPTSFSMKSMQNNLPQASASSSLAANWTKEFQPRQNQLASQWSQQYTSSAPSMESAWRQVQAPSMTSTSSHQPITDAGMWSSEYLDTVDTSLTKSSGTQNWADDFMEQQDNYGMENTWKDAQAFEQRWEEIKRDMEKDESLQSPENYVYQEANPFTTMSDPLMEGDNLMRNGDIGNAMLAYEAAVQKDPQDARAWCKLGLAHAENEKDQLAMQAFQKCLQIDAGNKEALLGLSVSQANEGMENEALHQLDKWMSSYLGSNSTQVTTTPPLYSSFLDSDTFNRVEARFLDAARQQGATPDPDLQNALGVLYNLNRNFARAVDSLKLAISKNPTDARLWNRLGATLANGDHTAEAISAYREALKLYPTYVRARYNLGISCMQLSSYDEALKHFLSALELQKGGNDASGIWTTMRSAAIRTSNVPDNLLRAVERRDLAAVKASLV | not soluble |
| MSLGMPSKQREYSNRFFDSTVWNDFAFRDDDVVIASYAKAGTTWVQQIVAQLIFGGAEEIEVSRLSPWFDSVYPDKATKQRLLAEQRHRRFVKTHLPADALVLSERARYLYVGRDARDIVWSLYDHQRAVSADAQARLDAEPSSNGKLRVMPPPTCSVEDYFQTWMRADGAPLWPFWEGVRSWWALRDYDNVLLVHYAALLHDLPAQVRRIAAFLDIPLDAPCCERVLAHCSLDYMRAHAARYVPQGAGFWRDGGRAFFNQGLNGRWRDRLAPAVDAAYRQHVVAELGAECARWLATGDVASEGHHHHHH | soluble |
| MSEHETAGEGRFNSIEIRVLGSLIEKQATSPESYPLTLNALVLACNQKTSREPVMNLTQGQVGQALRALEGQGMTRLQMGSRADRWEHRVDKALELVPAQLVLMGLMFLRGPQTLNELLTRSNRLHDFDDTEQIQHQLERLISRDLALHLPRQAGQREDRYTHALGDPAEIEAILAARQQEGGARTSGGSVSEDRIEALEARIAALEARLAELEG | not soluble |
| MSRRRKANPTKLSENAKKLAKEVENSQEENDCDMLAKPQTPTIIIPGHMDDTPNPAGSPHDASIKSSSSTISDHTSTSATTGISDFPDILAQTEHGCSVLIDGNHLREIINSVDTQDGKQDLLSDVIRQLTSIKERLTNDESPVKDDLKEDPDDMSPMLHAGNFDSEMLLRQHELMQHQQQQMIIANMLKATQSLPLLFNGGLNYEAILNNPVLNATIAGHLPNPLASNISLLQKSISAKLAAAGNMQTVEKVETPLNLSKDTPSPTAIPQSPLSGFRLPYSLGTNYGSDGQLFNNCSPNSSGKSTPGNTSVTSEVATPRPQAKSPNHIKRPMNAFMVWARDERRKILKAYPDMHNSNISKILGSRWKGMSNSEKQPYYEEQSRLSKLHMEQHPDYRYRPRPKRTCVIDGKKVRVNEYKTIMKTKKDLMWGDEPGFSQPSDLQMDLASHVNLLNDLTQHHHQSHLLQTAE | not soluble |
| MKGAEALLRALEREGVEVIFGHPGGAIMPTYDALYDSPIRHILVRHEQGGVHAATAYARASGRVGVVMATSGPGALNLVTGLADAMMDSTPVVAITGNVPRALIGTDAFQEADVTGVTMPITKHNYLVQDVNEIPRVVKEAFHIAATGRPGPVLIDIPKDVQLAEFTGSFDVKLDLPGYKPTLKGHPKQIERALDALEKAERPVLMVGGGAQHAHAELLAFAEKTGLPVITTLMGLGAFPGNHPLWLGMPGMHGTVAANRAIHHADVILAIGLRFDDRVTGKVSRFAPHAHTIIHVDIDPAEIGKVVRTHIPIVGDSRLVLKELLKGAKALRLAAWWRELEEWRTRYPLRYRPKPHLQSQEVIRAFYEATGGHAIVTTGVGQHQMFAAQFFPVTRPRSFLTSGGLGTMGVGLPFAIGAKIARPEELVIDFDGDGSFQMTLQELATVVKYKLDVKVVILNNGYLGMVRQWQDLFHAKRYSEVYLADSNPDFARLAEAYGIKGVRVERKEDLMKGVEAVLNADGPVVAEFKVYQEEGVFPMIPAGGAAEDMILEPPEEKEEVGA | soluble |
| MTTPGSSLPPALVDRTALAARRARMRDAALFLHHAALDEVQDRLSLVNRTFTDMAVVTPAPALWAGSFPMARFVAEDEMLDLAPQSCDLVVHAMALHWANDAVGQLIQCRRALRPDGLLLAICFGGQTLHQLRAALAEAEAQVSGGISPRVAPMAEIRDLGALLQRAGLALPVADSLTLTAEYRDLPHLMRDLRQMGEANALSARLRHPTQRAVFERAEEIYAAHFATPDNRLPATFELICLTGWAPDDSQPKPLRPGSASARLAAALGTSETPLPD | not soluble |
